Target: hemagglutinin H1 on influenza virus A/Puerto Rico/8/34 strain (H1N1) (influenza virus A/Puerto Rico/8/34 (H1N1)) (UniProt P03452)
Assay: cell-based or functional assay

Q: For C18-s2(1-4)P4A (C18-ARLA peptide amide), which IC50(µM), plaque assay, infection of MDCK cells is on record?
A: Its IC50(µM), plaque assay, infection of MDCK cells is greater than 100 µM.
